Test results as given in patent publication US20170342107A1 (REGENTS OF THE UNIVERSITY OF MINNESOTA, published 2017).
One block for each binder: values may come before it. Square brackets hold non-standard residues; d marks the D form. * marks the point of attachment. Phe(4-I) = N[C@@H](Cc1ccc(I)cc1)C(=O)O; dPhe(4-I) = N[C@H](Cc1ccc(I)cc1)C(=O)O; Bta = N[C@@H](Cc1csc2ccccc12)C(=O)O; Tic = O=C(O)[C@@H]1Cc2ccccc2CN1; dTic = O=C(O)[C@H]1Cc2ccccc2CN1; For = O=C*

Experiments:
[1] = target: T1, mouse melanocortin-3 receptor (mouse, UniProt P33033 1-323); assay: 125I-NDP-MSH competitive displacement, HEK293 cells stably expressing mMC3R
T1 construct: whole, on cells; also called mMC3R; MC3R
T1 sequence (P33033 whole entry): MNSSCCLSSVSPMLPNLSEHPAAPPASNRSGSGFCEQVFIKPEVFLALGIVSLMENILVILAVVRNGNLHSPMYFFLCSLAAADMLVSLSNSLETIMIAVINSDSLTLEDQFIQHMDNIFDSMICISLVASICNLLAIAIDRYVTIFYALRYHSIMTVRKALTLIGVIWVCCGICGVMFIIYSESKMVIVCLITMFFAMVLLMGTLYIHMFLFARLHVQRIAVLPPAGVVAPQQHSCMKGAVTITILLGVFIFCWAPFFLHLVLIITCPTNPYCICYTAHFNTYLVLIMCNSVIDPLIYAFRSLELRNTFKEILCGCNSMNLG
Description: (§1) A typical experiment utilized a 12-well format.

[2] = target: T2, mouse melanocortin-4 receptor (mouse, UniProt P56450 1-332); assay: 125I-NDP-MSH competitive displacement, HEK293 cells stably expressing mMC4R; negative = more potent than control
T2 construct: whole, on cells; also called mMC4R; MC4R
T2 sequence (P56450 whole entry): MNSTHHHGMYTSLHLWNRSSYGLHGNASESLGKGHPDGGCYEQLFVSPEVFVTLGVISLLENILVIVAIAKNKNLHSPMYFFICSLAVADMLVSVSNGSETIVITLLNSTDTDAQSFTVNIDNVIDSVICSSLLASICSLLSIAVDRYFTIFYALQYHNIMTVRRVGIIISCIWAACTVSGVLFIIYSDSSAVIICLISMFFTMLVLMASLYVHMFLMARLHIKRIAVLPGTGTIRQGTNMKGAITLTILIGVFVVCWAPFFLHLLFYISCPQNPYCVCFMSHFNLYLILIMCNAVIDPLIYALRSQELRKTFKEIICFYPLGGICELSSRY
Description: as §1

[3] = target: T1, mouse melanocortin-3 receptor; assay: 125I-NDP-MSH competitive displacement, HEK293 cells stably expressing mMC3R; negative = more potent than control
Description: as §1

[4] = target: T3, mouse melanocortin-5 receptor (mouse, UniProt P41149 1-325); assay: cell-based or functional assay
T3 sequence (P41149 whole entry): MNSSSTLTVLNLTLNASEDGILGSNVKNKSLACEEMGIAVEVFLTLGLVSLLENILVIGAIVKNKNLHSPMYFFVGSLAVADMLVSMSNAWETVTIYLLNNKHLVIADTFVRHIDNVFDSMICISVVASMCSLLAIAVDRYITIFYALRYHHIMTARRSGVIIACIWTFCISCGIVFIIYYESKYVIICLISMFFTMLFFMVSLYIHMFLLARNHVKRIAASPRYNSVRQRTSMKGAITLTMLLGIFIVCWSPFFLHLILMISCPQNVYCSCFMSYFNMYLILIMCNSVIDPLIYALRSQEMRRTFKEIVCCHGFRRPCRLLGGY

[5] = target: mouse melanocortin-1 receptor (mouse, UniProt Q01727 1-315); assay: cell-based or functional assay
Chain of mouse melanocortin-1 receptor (Q01727 whole entry): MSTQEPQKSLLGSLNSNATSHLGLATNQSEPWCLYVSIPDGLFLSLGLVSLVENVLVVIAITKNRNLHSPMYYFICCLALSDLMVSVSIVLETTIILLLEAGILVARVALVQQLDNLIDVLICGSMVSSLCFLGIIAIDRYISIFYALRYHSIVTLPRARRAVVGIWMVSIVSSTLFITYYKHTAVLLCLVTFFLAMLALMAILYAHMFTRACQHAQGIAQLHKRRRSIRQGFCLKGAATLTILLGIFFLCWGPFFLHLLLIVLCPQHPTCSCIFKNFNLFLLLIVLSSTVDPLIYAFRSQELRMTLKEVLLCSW

[6] = target: T1, mouse melanocortin-3 receptor; assay: cell-based or functional assay
[7] = target: T2, mouse melanocortin-4 receptor; assay: cell-based or functional assay
[8] = target: T2, mouse melanocortin-4 receptor; assay: cell-based or functional assay; remark: listed apart in the source
[9] = target: T1, mouse melanocortin-3 receptor; assay: cell-based or functional assay; remark: listed apart in the source
[10] = target: T3, mouse melanocortin-5 receptor; assay: cell-based or functional assay; remark: listed apart in the source

Binder: Ac-FR[dPhe(4-I)][Bta]-NH2 [SKY4-48-15, Ac-Phe-Arg-(pI)DPhe-3Bal-NH2]
IC50 [1]: 5.35 µM | Fold Diff. (IC50 against SKY4-48-1) [2]: 7 fold | Fold Diff. (IC50 against SKY4-48-1) [3]: -9 fold

Binder: Ac-SYSMEHRFWGKPV-NH2 [SKY2-125-5, (Arg7, Phe8) α-MSH, Ac-Ser-Tyr-Ser-Met-Glu-His-Arg-Phe-Trp-Gly-Lys-Pro-Val-NH2]
fold decreased agonist potency against α-MSH [6]: 45000 fold

Other lines, results leading:

fold increase in agonist potency against SKY5-146-7 [4]: 40 fold | fold increase in agonist potency against SKY5-146-7 [5]: 380 fold
Binder: Ac-HR[dPhe(4-I)][Tic]-NH2 [SKY6-24-2, Ac-His-Arg-(pI)DPhe-Tic-NH2]

Antagonist Ki [7]: > 3.1 µM | Agonist, % of NDP-MSH maximal response [8]: 71 % @ 100 µM | pA2 (antagonist) [8]: 5.4 pA2 | pA2 (antagonist) [9]: 6.8 pA2
B1: SKY5-148, For-DTic-(pI)Phe-DArg-DHis-NH2 (peptide)
peptide: For-[dTic][Phe(4-I)][dR][dH]-NH2
SMILES: N=C(N)NCCC[C@@H](NC(=O)[C@H](Cc1ccc(I)cc1)NC(=O)[C@H]1Cc2ccccc2CN1C=O)C(=O)N[C@H](Cc1c[nH]cn1)C(N)=O

Agonist, % of NDP-MSH maximal response [10]: 29 % @ 100 µM
B2: SKY5-121, Ac-DTrp-DArg-Phe-DHis-NH2 (peptide)
peptide: Ac-[dW][dR]F[dH]-NH2
SMILES: CC(=O)N[C@H](Cc1c[nH]c2ccccc12)C(=O)N[C@H](CCCNC(=N)N)C(=O)N[C@@H](Cc1ccccc1)C(=O)N[C@H](Cc1c[nH]cn1)C(N)=O
